Laboratory results taken from a protein production outcome set (Wang et al. 2014).

Experiment: label from the status in PepcDB records

Sequence	protein production
MSLCRLARKNIRTFATKRMKQFMWIAMSIMILFFMISLQFNEGAILKVGDAFVFQMYFYTLFIVLIFICIFTTYKMMYSLLLVRREEFTSYVAENIKRKEVLCLLCQEQLFIYGAAFVFGLVNGMLFLKLFTIIFIRIAGIQGINSAPITIYAIVVVSIIMIVILLLSMVQCFRFVQSLQDKNSLHFKKKA	failed
MAKLVSIIVSVYNKEQFLEKCIESLIDLKMDKNNIEAIFVDDCSTDESVNIIKHYEKDYDFIKLIQLPENTGSPSEPRNIGMREAQGKYITLLDADDWLDKEGFPQVIEKVNKDDADLGFGQSFKHKSKNVKYHARFTSYKEASHLKPQDISKIFRAVGPPGKVFKRSLVMDHHIEFEHMKYGEDKLFFFQLFGKVDDITMSTIPMYHVNRYDENKSLVQQTSMLDKANSNLEVLDRTCHMDMSSELKHMALARMVEVDFISRFLRTKTFIKSADKEKFYAVIEKVERKIKEQGIDINTLITNPVFKQIYTLYHHADESVFVNFTKDVVNDQWRYIIQDGIVFRDFVHQYDMIKPTVVDCYPVYEGTQMMGENKYEVIRVMKPDDINIQSVSLVEINNAANEYEVTYKYSDDRIYVPHEEFEKLNKDININFNVNYGESGRSLVYASYPSFNDVFKMKRQNFKVEFVHKKNENKAQQVTNRKSEYFKRITNPMMTLKKIKIYKDVSFKEEVGSLEAGTRVEASDIQYTSKGTPRLVLDDGSIITANKDFITLINTSGLNKYITEVPKKVKVVKACKLYDSRDFKDNTVRKLKKGDVLTIRDIIYTNNSTPRLVTQEGLFLTANKDFIKIIK	failed
MNTLRYFDFGAARPVLLLIARIAVVLIFIIFGFPKMMGFDGTVQYMASLGAPMPMLAAIIAVVMEVPAAILIVLGFFTRPLAVLFIFYTLGTAVIGHHYWDMTGDAVGPNMINFWKNVSIAGAFLLLAITGPGAISLDRR	failed
DMKQLAEDVKLQLYKLLEIPDPDKNWATLAQKLGLGILNNAFRLSPAPSKTLMDNYEVSGGTVRELVEALRQMGYTEAIEVIQAASS	not failed
ACEQNEDWVVNEPMQSFEENPEYAPLNTIPDWVSEKVTPKEYELWRTMSSRYEINYSFLKKDISEKRKKEIYDCINNICERIEKGQINKYEGFLNIADEDGTTLSDSQYFGRIATRSPEGGAEYKTNGCTLYTHSLGPYIKAAVTYKKSDDDVTITSSSVYTGSPYLGNDPSFSGASSVSYDKDKKLIAASCSGTLSFKDGSRKVEVTVQKTGFMIP	not failed
MRNPNDVFHLAIPARDLDEAYDFYVTKLGCKLARRYPDRITLDFFGDQLVCHLSDRWDREVSMYPRHFGITFRDKKHFDNLYKLAKQRGIPFYHDLSRRFEGLIEEHETFFLIDPSNNLLEFKYYFDDRMMY	not failed
MLHSSIVLVIKEETMNVAKMYDDVSERYQKLVDDSHYVGPRWISGKLKTLPIEQGSALDLACATGSIGHVVKNHYPDLTIHGLDISSKMVDKARQTNLYQSVSVHNLDEPFSPLFEQTFDLITALGFTEFLAEPQQLLECISRKLTANGRCFISFQYHDPDGQDLPRNTYSGSVVHTAYTESEVEQLCQQAGLEVVSLENVIGYVSGVGYVCRYLMLELKKSHR	failed
MEDELPIIKGKKVILFAPTFRGSGHGTAHYPFFKIDFERLARYCEKNNAVVLFKMHPFVKNRLNIADKHKQYFVDVSDFREVNDILFITDLLISDYSSLIYEYAVFKKPMIFYAFDLEDYITTRDFYEPYESFVPGKIVQSFDALMDALDNEDYEGEKVIPFLDKHFKYQDGRSSERLVRNLFGS	not failed
MSRFHWLWPWRSSTSLRVTTVLRLGADQPAIVAAARASQACTRSPRTTRDAMAMHTNGSVFAGWDGSVIQAQQLQHQLAQRVLLHDEVSATPQLLAGFDVGFEDDGQTTRAAAVLLDAHTLLPLETHVARAPTSMPYVPGLLSFRELPALLQALARLSRTPDLVFIDGQGIAHPRRLGIAAHFGVVTGLPCIGIAKQRLAGSFAEPGPERGDHTPILLGGAQIGWALRSKPRCNPLIVSPGHCVSMQGALGWTLRTLRSYRLPEPTRLADRLASRRGKMPALAADTPLLF	failed
MTESIVCHKCQEAITKRMITALGKTWHPEHFLCHHCDEQILDATFNVQSGEPVCNKCFVERYTYTCAGCKKPILEKTICAMGESWHEDCFCCGGACKKPLANQTFYERDGKPYCKKDYEDLFAARCAKCEKPITDSAVLAMNVKWHRDCFRCNKCENPITSQTFTIDGDKPVCPACNC	failed
EQYEIGVKPPKPANITATYTGGVLTVRVTENGKTLTLTSNVTMPTGTGPFPVVIGMNARTGQLPTNLFNGVIQIPFNHDQVAKYTQGDRDPSYPFFQLYPNLTSNGYYSAWAWGISRLIDGIELVQAQLNADTKRIAVTGCSYAGKMALFAGAFDERIALTIAQESGGGGVNAWRVSETIGNVEKISNTNYAWFMQSLKTNFQNGNAVKLPYDHHELMAMIAPRALLVLGNPPFEWLGDESGYVSSRAAQEVWTTLGVPERFGFSFRGGHDHCSLPSASNAEVTAFVDKFLR	failed
MNKHASQPRAIYYVVALQIWEYFSFYGMRALLILYLTNQLKYNDTHAYELFSAYCSLVYVTPILGGFLADKVLGNRMAVMLGALLMAIGHVVLGASEIHPSFLYLSLAIIVCGYGLFKSNVSCLLGELYEPTDPRRDGGFSLMYAAGNVGSIIAPIACGYAQEEYSWAMGFGLAAVGMIAGLVIFLCGNRHFTHTRGVNKKVLRATNFLLPNWGWLLVLLVATPALITILFWKEWSVYALIVATIIGLGVLAKIYRKAENQKQRKELGLIVTLTFFSMLFWAFAQQGGSSISLYIDRFVNRDMFGYTVPTAMFQSINAFAVMLCGVFLAWVVKESVAGNRTVRIWGKFALGLGLMSAGFCILTLSARWSAMYGHSSLPLMVLGLAVMGFAELFIDPVAMSQITRIEIPGVTGVLTGIYMLLSGAIANYLAGVIADQTSQASFDASGAINYSINAYIEVFDQITWGALACVGLVLMIWLYQALKFRNRALALES	failed
MFGGAKGGHFGVPPAGYSGAVPQSEAGTKAGPAGGRPADTMWRVRCKAKGGTHLLQGLSSRTRLRELQGQIAAITGIAPGSQRILVGYPPECLDLSDRDITLGDLPIQSGDMLIVEEDQTRPKASPAFSKYGAPSYVREALPVLTRTAVPADNSCLFTSVYYVVEGGVLNPACAPEMRRLIAQIVASDPVLYSEAILGKTNEDYCDWIRRDDTWGGAIEISILSKFYQCEICVVDTQTVRIDRFGEDAGYTKRVLLIYDGIHYDPLQRNFPDPDTPPLTIFSSNDDIVLVQALELADEARRKRQFTDVNRFTLRCMICQKGLTGQAEARDHARETGHTNFGEV	failed
MSSYSNELLMLIFRSMLCKQVLIFFAYSGLYYLVTYFMDKKIQHQKQFLLKLGLVKLKKRNKTRWEKIRWRMQLCLIVSILVLVVSTFVLNPDDQYILLVIYVMKLATFTSFAIAFVDSLGPIKEIQQLIVGAQSSDTLDSDKKVLTVTIFKKIRWMLILYQVLKVPALIIILTLSVDY	failed
MQIYLSTLTELDYDKSLNSIEESFDDNPETSWQARAKVKHLRKSPCYNFELEVIAKNENNDVVGHVLLIEVEINSDDKTYYGLAIASLSVHPELRGQKLGRGLVQAVEERAKAQEYSTVVVDHCFDYFEKLGYQNAAEHDIKLESGDAPLLVKYLWDNLTDAPHGIVKFPEHFY	failed
MAGASLFTLLDDIATLLDDVSILTKVAAKKTAGVLGDDLALNAQQVTGVTADRELPVVWAVAKGSLVNKVILVPAALAISALEAWLRGRGYNVPLVMPLMMIGGAYLCFEGVEKLAHKFLHSEEEDAQRHAERTRVLADEAVDVVALEKDKVKGAIRTDFILSAEIIVLSLGVVAGVSFGQQVAVLVAIALAMTIGVYGLVAGIVKLDDLGLYLSKKGAALAALGRGILVAAPWLMKFLSVAGTLAMFLVGGGILVHNIPTLHHLVVDLAKASGSLGWLVEALGNMLVGVVAGAVVLAAVTGFQKLRGNRPRTDSVQSLRRQAKSRTG	failed
MTDKIFQEKVGPVALTIVPTQKYKSNKIVFKFRAPLERETVTKRSLLSILLETNSEKYPTQTAFRKQLANLYGANFYTTTAKKGNEHVLTVVFDMIDGQYVSDGENILKDAFAFIEQAIFQPNATNGAFDEEIVVREKENLKSSLEGIYDDKIRFASKRLVEEMFRDDEFRFGAAGVLEDVDAITAKDLYEYYLKFIKEDVIEIFICGDVTKEEVMPLIEKMAFSPRPERKGVFYTKEAPKETRVIHEQQAINQGKLVLGYQTETLFGDDDFVALQLANGLLGGFANSKIFINVREKASLAYYASSRIDSFKGYMIISAGIDEVNYKQALTIIEEQIVAMKQGDFTEDELNQTKEMLINQLLETNDQAQGLIELAYNNVLREANLDLENWIIKIKQATKQEVVAAINKIKPDTIYFLSKGGEELHGKNHI	failed
MLTVRNHPGVMSHICGLFARRAFNVDGILCMPLAGGEESRIWLQVLDDQRLQQMISQLEKLEDVLQVCRFDSEMPIFDQVEDLVAHQR	not failed
AADERVKEMWAYSPSMDRNVPLVVITADESAGPRPVIYLLNGGDGGEGAANWVMQTDVLDFYLEKNVNVVIPMEGKFSYYTDWVEENASLGGKQMWETFLVKELPGPLEEKLNTDGQRAIAGMSMSATTSLLFPQHFPGFYDAAASFSGCAATSSLLPWEYLKLTLDRGNATPEQMWGPRGGEYNIYNDALINSDKLRGTELYVSNASGLAGEWESVDSPRFEGLNQQVQSIAMAETVVTGGIIEAATNKCTHDLKAKLDSAGIPADWNLRPTGTHSWGWWQDDLRGSWTTFARAFEL	failed
MSAITRYLAMLRLFGMLLCAAAIPSVATATVPVTVAVAASDVEEEAVEASAVGAEAEAARDAGYESAEVPALARRVTDLTATLDAAERARLEASLAALEARKGAQVAILMVPSTYPDSIEAYATRVFEAWKLGRKGIDDGVLVLVAKDDRRMRIEVGYGLEGTITDIDAGRIIREYMTPAFRQQDYAGGLEAAAQRLVRLIDGEALPPPPRDPLEPGAVRQTLAIAFLLGALGGVALLVRPRAWYWTLGAVVALAAALALGRHWPAGAMVALAEMVAVLGVGFGALLKYSRGARWFFAILVLYALGLFWAYRRYGLPVLHYGLAVPLSLGLSLLMLAGAWQGLRRGRRWAYLPGLLGLLLTLALECLLLLVDDPLNSIEALIILPAACLPLLIGCNFSAGGSGGGRRRGGDYASSSGSSSSSSSSSSSDSFSGGGGSSGGGGASGSWLEHHHHHH	failed
PIGKSADNMYSYLALVQDDPTVQVVNMAQKAYVEHYIQGDPDLAKLPVLSAAAPFKVGGRKNDPASFVEVEKGQLTFRNAADLYLYPNTLVVMKVSGKEVKEWLECSAGQFNQIDPASSKPQSLINWDGFRTYNFDVIDGVNYQIDVTQPARYDGECQMIHPQAERIKHLTFNGKPVDPQATFLVATNNYRAYGGKFAGTGESHIAFASPDENRSVLAAWIGAQSKKEGAIHPAADNNWRLAPIHSN	failed
MTQDPIANLKLARKGPIVSIIVYLSLSVAKLLAGYLLNASSLIADGFNNLSDIVGNVALLIGLHLASQPADANHKFGHWKIEDLSSLVTSFIMFLVGFQVLIHTIKSIFSGQQVDIDPLGAIVGIVSAFVMLGVYVFNKRLSKRVKSSALVAASKDNLADAVTSIGTSIAIIAASLHLPVIDHIAAMIITFFILKTAFDIFMESSFSLSDGFDSRHLKKYEKAILEIPKIVAVKSQRARTYGSNVYLDIVLEMNPDLSVYESHSITEKVEQLLSDQFSIYDIDIHVEPAMIPEEEIFDNVAKKLYRYEKLILSKVPDYDHYIAKSFQLIDANGQTVNYEQFLNQEIYYPSNFNHFQIESISQKTMLVTYQLNGNQRTSIWRRHESWSLLFHQITPIAKKQLHHTHYRIVKM	failed
MINRDFIISFIVVTCIIYLIYVCYGKYLEKKQIYLKTLTIFLIIEVLRRIFIYGKVNNRLISGLSFIQLIFLGISVAMYGLMYFKNNLS	failed
MAMSLSGAVLSGMGSSFHNVGAKQSGVGTVRVGRKSELVVVAQRKKSLIYAVKSDGNILDDLNEATKKASDFVTDKTKEALADGEKTKDYIVEKTIEANETATEEAKKALDYVTEKGKEAGNKAAEFVEGKAEEAKNATKS	failed
